According to paper PMC4598028, “pH-Dependent Assembly and Segregation of the Coiled-Coil Segments of Yeast Putative Cargo Receptors Emp46p and Emp47p” (PLoS ONE, 2015):

Tests used:
[1] = target: coiled-coil segment of Emp47p, Emp47p^CC (254–374) (yeast) (UniProt P43555); test: native MS; nanoflow electrospray under non-denaturing conditions, 200 mM ammonium acetate pH 7.4; single proteins 43 uM; mixtures of Emp47p^CC 33 uM with 17, 33 and 67 uM Emp46p^CC, 25 °C, 30 min
[2] = target: E303A mutant of Emp46p^CC (yeast) (UniProt Q12396); test: cross-linking; dimethyl suberimidate (DMS) 0.1 mg/mL, 60 or 120 min, room temperature, 100 mM carbonate/bicarbonate buffer pH 8.9; SDS-PAGE
[3] = target: the molecule itself; test: native MS; mass spectra under non-denaturing conditions measured at pH 5.0; Emp47p^CC fixed, Emp46p^CC varied
[4] = target: the molecule itself; test: SEC; Superose 12 gel filtration; Emp47p^CC 70 uM alone or with Emp46p^CC or its E303A mutant; 10 mM phosphate buffer pH 7.4, 150 mM NaCl

Row | Molecule | stoichiometry N (Emp46p^CC per Emp47p^CC (printed as 1:3)) [1] | stoichiometry N [2] | stoichiometry N [3] | stoichiometry N [4]
1 | E303A mutant of Emp46p^CC (from UniProt Q12396 252-355) (domain or fragment) | 0.33 | 2 |  | 
2 | coiled-coil segment of Emp47p, Emp47p^CC (254–374) (domain or fragment, yeast, UniProt P43555 282-402, looked up, Emp47p, yeast putative cargo receptor, coiled-coil segment, residues 254-374 by the methods (the results print 271–274); in mixtures with Emp46p^CC it forms 1:3 and 2:2 heterotetramers; the results print (271–274); also called Emp47^CC; source: E. coli BL21-CodonPlus, purified (Chelating Sepharose, tag cleaved, gel filtration)) GKEKLIEKTAFDADKDKITNYELYKKLDRVEGKILANDINALETKLNDVIKVQQELLSFMTTITKQLSSKPPANNEKGTSTDDAIAEDKENFKDFLSINQKLEKVLVEQEKYREATKRHGQ |  |  | 3 | 4
3 | coiled-coil segment of Emp46p, Emp46p^CC (252–355) (domain or fragment, yeast, UniProt Q12396 298-401, looked up, Emp46p, yeast putative cargo receptor, coiled-coil segment, residues 252-355; Monomer-dimer equilibrium by SV-AUC and native MS; also called wild-type Emp46p^CC; source: E. coli BL21-CodonPlus, purified (Chelating Sepharose, tag cleaved, gel filtration)) EESFREKMPFSDKEESITSNELFEKMNKLEGKIMANDIDPLLRKMNKIVENERELIQRLRPLLDLKKTAISDDSFQDFLSMNANLDRLIKEQEKIRQDAKLYGK |  |  | 2 | 
